Measurements as given in patent US20060008800A1 (published 2006).

How the values were obtained:
[1] = target: Apocalmodulin (Calcium-free Calmodulin) (UniProt P0DP23 2-149); experiment: tryptophane fluorescence, 10 µM peptide, equimolar Apocalmodulin, 1 mM EGTA
Ca2+/Calmodulin = Ca2+/Calmodulin (UniProt P0DP23 2-149); experiment: tryptophane fluorescence, 10 µM peptide, equimolar Calmodulin, excess calcium

- binding result [1]: binds
- binding result (Ca2+/Calmodulin): binds
B1: Munc13-1 peptide reflecting the Calmodulin binding site of rat Munc13-1 (peptide)
peptide: CRAKANWLRAFNKVRMQLQEAR
notes: Synthesized and purified by standard procedures; used at 10 uM in the tryptophane fluorescence assay; also called peptide 13-1; Munc13-1 derived peptide
